The chains are these.
B1: Serine/threonine-protein kinase A-Raf, residues 21 to 89; numbered along this chain, P10398 (parent)
chain: VKVYLPNKQRTVVTVRDGMSVYDSLDKALKVRGLNQDCCVVYRLIKGRKTVTAWDTAIAPLDGEELIVE

± gives the uncertainty stated by the source.

Variants of B1 are the subject of the series. The series can be described thus: abundance fitness (aPCA) (normalised: wild type 0, dead -1); higher = more abundant; growth selection in yeast, the domain comes from the species named. Conditions: Homo sapiens.
In the case of VKVYLPNKQRTVVTVRDGMSVYDSLPKALKVRGLNQDCCVVYRLIKGRKTVTAWDTAIAPLDGEELIVE [D26P], the abundance fitness was -0.977 ± 0.22. VKVYLPNKQRTVVTVRDGMSVYDSLGKALKVRGLNQDCCVVYRLIKGRKTVTAWDTAIAPLDGEELIVE [D26G]: the abundance fitness is -0.1 ± 0.047.

For VKVYLPNKQRTVVTVRDGMSVYDSLLKALKVRGLNQDCCVVYRLIKGRKTVTAWDTAIAPLDGEELIVE [D26L], the abundance fitness is -0.137 ± 0.053. On to VKVYLPNKQRTVVTVRDGMSVYDSLAKALKVRGLNQDCCVVYRLIKGRKTVTAWDTAIAPLDGEELIVE [D26A], for which the abundance fitness was 0.069 ± 0.071.

For VKVYLPNKQRTVVTVRDGMSVYDSLQKALKVRGLNQDCCVVYRLIKGRKTVTAWDTAIAPLDGEELIVE [D26Q], the abundance fitness amounted to 0.179 ± 0.098.

On to VKVYLPNKQRTVVTVRDGMSVYDSLKKALKVRGLNQDCCVVYRLIKGRKTVTAWDTAIAPLDGEELIVE [D26K], for which the abundance fitness was -0.076 ± 0.083. Regarding VKVYLPNKQRTVVTVRDGMSVYDSLMKALKVRGLNQDCCVVYRLIKGRKTVTAWDTAIAPLDGEELIVE [D26M], the abundance fitness was -0.119 ± 0.063. As for VKVYLPNKQRTVVTVRDGMSVYDSLEKALKVRGLNQDCCVVYRLIKGRKTVTAWDTAIAPLDGEELIVE [D26E], the abundance fitness turned out to be 0.04 ± 0.093. Take VKVYLPNKQRTVVTVRDGMSVYDSLCKALKVRGLNQDCCVVYRLIKGRKTVTAWDTAIAPLDGEELIVE [D26C]: the abundance fitness turned out to be 0.063 ± 0.099. The result for VKVYLPNKQRTVVTVRDGMSVYDSLIKALKVRGLNQDCCVVYRLIKGRKTVTAWDTAIAPLDGEELIVE [D26I] reads -0.146 ± 0.09; that for VKVYLPNKQRTVVTVRDGMSVYDSLHKALKVRGLNQDCCVVYRLIKGRKTVTAWDTAIAPLDGEELIVE [D26H], -0.096 ± 0.23. Regarding VKVYLPNKQRTVVTVRDGMSVYDSIDKALKVRGLNQDCCVVYRLIKGRKTVTAWDTAIAPLDGEELIVE [L25I], the abundance fitness is -0.573 ± 0.17. VKVYLPNKQRTVVTVRDGMSVYDSCDKALKVRGLNQDCCVVYRLIKGRKTVTAWDTAIAPLDGEELIVE [L25C]: the abundance fitness is -0.427 ± 0.18. For the variant VKVYLPNKQRTVVTVRDGMSVYDSKDKALKVRGLNQDCCVVYRLIKGRKTVTAWDTAIAPLDGEELIVE [L25K], the abundance fitness is -0.542 ± 0.09.

For the variant VKVYLPNKQRTVVTVRDGMSVYDSSDKALKVRGLNQDCCVVYRLIKGRKTVTAWDTAIAPLDGEELIVE [L25S], the abundance fitness was -0.891 ± 0.11. For VKVYLPNKQRTVVTVRDGMSVYDSEDKALKVRGLNQDCCVVYRLIKGRKTVTAWDTAIAPLDGEELIVE [L25E], the abundance fitness is -0.944 ± 0.18. For VKVYLPNKQRTVVTVRDGMSVYDSQDKALKVRGLNQDCCVVYRLIKGRKTVTAWDTAIAPLDGEELIVE [L25Q], the abundance fitness is -0.961 ± 0.17. Turning to VKVYLPNKQRTVVTVRDGMSVYDSVDKALKVRGLNQDCCVVYRLIKGRKTVTAWDTAIAPLDGEELIVE [L25V], the abundance fitness is -0.54 ± 0.052.

In the case of VKVYLPNKQRTVVTVRDGMSVYDSADKALKVRGLNQDCCVVYRLIKGRKTVTAWDTAIAPLDGEELIVE [L25A], the abundance fitness was -0.919 ± 0.12. For the variant VKVYLPNKQRTVVTVRDGMSVYDSWDKALKVRGLNQDCCVVYRLIKGRKTVTAWDTAIAPLDGEELIVE [L25W], the abundance fitness is -0.971 ± 0.19.

For VKVYLPNKQRTVVTVRDGMSVYDSFDKALKVRGLNQDCCVVYRLIKGRKTVTAWDTAIAPLDGEELIVE [L25F], the abundance fitness was -0.903 ± 0.24. As to VKVYLPNKQRTVVTVRDGMSVYDSDDKALKVRGLNQDCCVVYRLIKGRKTVTAWDTAIAPLDGEELIVE [L25D], the abundance fitness was -0.717 ± 0.11. Turning to VKVYLPNKQRTVVTVRDGMSVYDSTDKALKVRGLNQDCCVVYRLIKGRKTVTAWDTAIAPLDGEELIVE [L25T], the abundance fitness was -0.978 ± 0.16. Regarding VKVYLPNKQRTVVTVRDGMSVYDSHDKALKVRGLNQDCCVVYRLIKGRKTVTAWDTAIAPLDGEELIVE [L25H], the abundance fitness was -1.06 ± 0.14. The result for VKVYLPNKQRTVVTVRDGMSVYDSGDKALKVRGLNQDCCVVYRLIKGRKTVTAWDTAIAPLDGEELIVE [L25G] reads -0.697 ± 0.1; that for VKVYLPNKQRTVVTVRDGMSVYDSRDKALKVRGLNQDCCVVYRLIKGRKTVTAWDTAIAPLDGEELIVE [L25R], -0.924 ± 0.082. Take VKVYLPNKQRTVVTVRDGMSVRDSLDKALKVRGLNQDCCVVYRLIKGRKTVTAWDTAIAPLDGEELIVE [Y22R]: the abundance fitness came to 0.11 ± 0.05. On to VKVYLPNKQRTVVTVRDGMSVPDSLDKALKVRGLNQDCCVVYRLIKGRKTVTAWDTAIAPLDGEELIVE [Y22P], for which the abundance fitness was -0.95 ± 0.19. As to VKVYLPNKQRTVVTVRDGMSVWDSLDKALKVRGLNQDCCVVYRLIKGRKTVTAWDTAIAPLDGEELIVE [Y22W], the abundance fitness is -0.069 ± 0.051. Consider VKVYLPNKQRTVVTVRDGMSVQDSLDKALKVRGLNQDCCVVYRLIKGRKTVTAWDTAIAPLDGEELIVE [Y22Q], for which the abundance fitness was 0.041 ± 0.054. As for VKVYLPNKQRTVVTVRDGMSVDDSLDKALKVRGLNQDCCVVYRLIKGRKTVTAWDTAIAPLDGEELIVE [Y22D], the abundance fitness is -0.83 ± 0.25. Then VKVYLPNKQRTVVTVRDGMSVMDSLDKALKVRGLNQDCCVVYRLIKGRKTVTAWDTAIAPLDGEELIVE [Y22M], with -0.142 ± 0.063.

On to VKVYLPNKQRTVVTVRDGMSVLDSLDKALKVRGLNQDCCVVYRLIKGRKTVTAWDTAIAPLDGEELIVE [Y22L], for which the abundance fitness is -0.04 ± 0.047. As for VKVYLPNKQRTVVTVRDGMSVCDSLDKALKVRGLNQDCCVVYRLIKGRKTVTAWDTAIAPLDGEELIVE [Y22C], the abundance fitness was -0.176 ± 0.12. In the case of VKVYLPNKQRTVVTVRDGMSVHDSLDKALKVRGLNQDCCVVYRLIKGRKTVTAWDTAIAPLDGEELIVE [Y22H], the abundance fitness came to 0.024 ± 0.2. Take VKVYLPNKQRTVVTVRDGMSVSDSLDKALKVRGLNQDCCVVYRLIKGRKTVTAWDTAIAPLDGEELIVE [Y22S]: the abundance fitness amounted to 0.094 ± 0.053. As for VKVYLPNKQRTVVTVRDGMSVTDSLDKALKVRGLNQDCCVVYRLIKGRKTVTAWDTAIAPLDGEELIVE [Y22T], the abundance fitness was -0.383 ± 0.13.

In the case of VKVYLPNKQRTVVTVRDGMSVVDSLDKALKVRGLNQDCCVVYRLIKGRKTVTAWDTAIAPLDGEELIVE [Y22V], the abundance fitness was -0.321 ± 0.057.

On to VKVYLPNKQRTVVTVRDGMSVGDSLDKALKVRGLNQDCCVVYRLIKGRKTVTAWDTAIAPLDGEELIVE [Y22G], for which the abundance fitness worked out at 0.105 ± 0.058.

For the origin of these results see the Human Domainome abundance scans (Beltran et al. 2025).
